Reference: article PMC10855866, “Structural Analysis of Breast-Milk αS1-Casein: An α-Helical Conformation Is Required for TLR4-Stimulation” (International Journal of Molecular Sciences, 2024)

How the values were obtained:
αS1-casein (Bos taurus) = αS1-casein (Bos taurus) (UniProt P02662); assay: SPR; conditions: cited from earlier work
[1] = target: T1, Toll-like receptor 4 (TLR4) (UniProt O00206 24-839); assay: flow cytometry on cells; TLR4+ cells (HEK293 transfected with TLR4/MD2/CD14) and TLR4- cells incubated 24 h with 500 nM αS1-casein or a truncated variant; detected with murine anti-His6 IgG and Dylight633 anti-murine IgG; conditions: one partner purified
T1 construct: Toll-like receptor 4 on the surface of transfected HEK293 cells; The TLR4+ cells also express MD2 and CD14; also called TLR4^+ cells; source: HEK293 cells transfected with TLR4/MD2/CD14 (InvivoGen), on cells
T1 sequence (O00206 24-839): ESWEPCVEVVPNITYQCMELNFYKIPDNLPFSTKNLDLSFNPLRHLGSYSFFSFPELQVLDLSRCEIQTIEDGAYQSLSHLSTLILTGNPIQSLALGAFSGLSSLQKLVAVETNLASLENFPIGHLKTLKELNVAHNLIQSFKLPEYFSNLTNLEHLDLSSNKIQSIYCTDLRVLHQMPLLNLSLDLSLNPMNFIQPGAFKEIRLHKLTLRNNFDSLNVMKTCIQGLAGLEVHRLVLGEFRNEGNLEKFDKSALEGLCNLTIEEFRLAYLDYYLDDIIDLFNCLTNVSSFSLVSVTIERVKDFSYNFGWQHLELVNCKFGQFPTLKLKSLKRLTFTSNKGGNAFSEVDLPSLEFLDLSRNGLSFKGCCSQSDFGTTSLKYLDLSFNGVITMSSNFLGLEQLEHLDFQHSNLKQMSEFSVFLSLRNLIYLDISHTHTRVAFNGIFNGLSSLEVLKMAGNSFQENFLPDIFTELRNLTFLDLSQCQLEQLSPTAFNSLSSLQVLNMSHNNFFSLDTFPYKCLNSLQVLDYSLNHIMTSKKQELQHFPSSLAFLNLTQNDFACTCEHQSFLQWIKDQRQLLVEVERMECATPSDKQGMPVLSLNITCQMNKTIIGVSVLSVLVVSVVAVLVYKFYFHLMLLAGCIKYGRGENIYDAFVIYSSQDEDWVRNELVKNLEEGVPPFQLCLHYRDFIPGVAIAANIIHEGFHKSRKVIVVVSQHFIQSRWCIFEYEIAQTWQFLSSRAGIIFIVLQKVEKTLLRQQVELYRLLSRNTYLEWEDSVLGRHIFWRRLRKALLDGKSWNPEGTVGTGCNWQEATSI

[2] = target: T1, Toll-like receptor 4 (TLR4); assay: cell-based or functional assay
[3] = target: the molecule itself; assay: SPR; αS1-casein or P-αS1-casein immobilised on a CMDP-5 chip (450 µRIU); the same protein injected at 0.625 to 5 µM in 10 mM HEPES, 150 mM NaCl, pH 7.2 (5 min, 5 µL/min); KD could be due to a mixture of dimer, tetramer and higher oligomer
[4] = target: the molecule itself; assay: MST; FITC-αS1-casein (25 nM) mixed with unlabelled αS1-casein in serial dilution; sonicated 15 min, incubated 1 h at 37 °C; 20 mM HEPES pH 7.2, 0.5% BSA, 0.0025% Tween-20; oligomer step not resolved
[5] = target: Toll-like receptor 4 (TLR4) (UniProt O00206)
Chain of Toll-like receptor 4 (TLR4) (UniProt O00206) (O00206 24-839): as above

Chain of αS1-casein (Bos taurus) (P02662 16-214): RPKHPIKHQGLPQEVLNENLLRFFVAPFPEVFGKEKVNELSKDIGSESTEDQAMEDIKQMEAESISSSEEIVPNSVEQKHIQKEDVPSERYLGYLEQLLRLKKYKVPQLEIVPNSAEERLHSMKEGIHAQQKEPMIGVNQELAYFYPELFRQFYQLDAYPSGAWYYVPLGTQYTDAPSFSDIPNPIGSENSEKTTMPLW

## αS1-casein (from UniProt P02662)
αS1-casein (Bos taurus)
  Kd: 2000 nM

B1: αS1-casein truncated variant C2 (domain or fragment, human, UniProt P47710 16-145, looked up)
chain: RPKLPLRYPERLQNPSESSEPIPLESREEYMNGMNRQRNILREKQTDEIKDTRNESTQNCVVAEPEKMESSISSSSEEMSLSKCAEQFCRLNEYNQLQLQAAHAQEQIRRMNENSHVQVPFQQLNQLAAY
notes: human αS1-casein, residues 16-145; Amplified from pET TS001, which codes for an N-terminal His6 tag; also called pET C2; source: E. coli, purified (NTA column chromatography); not shown: His6, C-terminal, kept
[1]
  fluorescence intensity on TLR4+ cells over TLR4- cells (fold): 2.2 fold
[2]
  IL-8 secretion of TLR4+ cells after 24 h with 15 nM protein (sandwich ELISA): 5.2 ng/mL

B2: αS1-casein truncated variant N1 (domain or fragment, human, UniProt P47710 35-185, looked up)
chain: EPIPLESREEYMNGMNRQRNILREKQTDEIKDTRNESTQNCVVAEPEKMESSISSSSEEMSLSKCAEQFCRLNEYNQLQLQAAHAQEQIRRMNENSHVQVPFQQLNQLAAYPYAVWYYPQIMQYVPFPPFSDISNPTAHENYEKNNVMLQW
[2]
  IL-8 secretion of TLR4+ cells after 24 h with 15 nM protein (sandwich ELISA): 7.5 ng/mL

B3: αS1-casein truncated variant N2 (domain or fragment, human, UniProt P47710 57-185, looked up)
chain: REKQTDEIKDTRNESTQNCVVAEPEKMESSISSSSEEMSLSKCAEQFCRLNEYNQLQLQAAHAQEQIRRMNENSHVQVPFQQLNQLAAYPYAVWYYPQIMQYVPFPPFSDISNPTAHENYEKNNVMLQW
[2]
  IL-8 secretion of TLR4+ cells after 24 h with 15 nM protein (sandwich ELISA): 4.8 ng/mL

B4: αS1-casein truncated variant N4 (domain or fragment, human, UniProt P47710 93-185, looked up)
chain: EMSLSKCAEQFCRLNEYNQLQLQAAHAQEQIRRMNENSHVQVPFQQLNQLAAYPYAVWYYPQIMQYVPFPPFSDISNPTAHENYEKNNVMLQW
[2]
  IL-8 secretion of TLR4+ cells after 24 h with 15 nM protein (sandwich ELISA): -2.5 ng/mL

B5: recombinant human αS1-casein (natural protein, UniProt P47710 16-185, looked up)
chain: RPKLPLRYPERLQNPSESSEPIPLESREEYMNGMNRQRNILREKQTDEIKDTRNESTQNCVVAEPEKMESSISSSSEEMSLSKCAEQFCRLNEYNQLQLQAAHAQEQIRRMNENSHVQVPFQQLNQLAAYPYAVWYYPQIMQYVPFPPFSDISNPTAHENYEKNNVMLQW
notes: human αS1-casein (CSN1S1), from plasmid pET TS001; C1 and C2, made from the same plasmid, begin at residue 16 and N1-N4 end at 185, so it probably lacks the signal peptide (1-15); Not phosphorylated (made in E. coli); also called full-length αS1-casein; full-size αS1-casein; source: E. coli, purified (NTA column chromatography); not shown: His6, N-terminal, kept
[3]
  Kd: 2000 nM
  stoichiometry N: 4
[4]
  Kd: 2200 nM
[2]
  IL-8 secretion of TLR4+ cells after 24 h with 15 nM protein (sandwich ELISA): 23.3 ng/mL

B6: in vitro phosphorylated αS1-casein (P-αS1-casein) (natural protein, human, UniProt P47710 16-185, looked up)
chain: RPKLPLRYPERLQNPSESSEPIPLESREEYMNGMNRQRNILREKQTDEIKDTRNESTQNCVVAEPEKMESSISSSSEEMSLSKCAEQFCRLNEYNQLQLQAAHAQEQIRRMNENSHVQVPFQQLNQLAAYPYAVWYYPQIMQYVPFPPFSDISNPTAHENYEKNNVMLQW
modifications: phosphorylated in vitro; the sites of this preparation are not stated
notes: human αS1-casein (CSN1S1), the recombinant protein of m1 after in vitro phosphorylation; source: phosphorylated in vitro
[3]
  Kd: 500 nM

B7: αS1-casein truncated variant C1 (domain or fragment, human, UniProt P47710 16-163, looked up)
chain: RPKLPLRYPERLQNPSESSEPIPLESREEYMNGMNRQRNILREKQTDEIKDTRNESTQNCVVAEPEKMESSISSSSEEMSLSKCAEQFCRLNEYNQLQLQAAHAQEQIRRMNENSHVQVPFQQLNQLAAYPYAVWYYPQIMQYVPFPP
notes: human αS1-casein, residues 16-163; Amplified from pET TS001, which codes for an N-terminal His6 tag; also called pET C1; source: E. coli, purified (NTA column chromatography); not shown: His6, C-terminal, kept
[1]
  fluorescence intensity on TLR4+ cells over TLR4- cells (fold): 2.3 fold
[2]
  IL-8 secretion of TLR4+ cells after 24 h with 15 nM protein (sandwich ELISA): 5.2 ng/mL

## VAEPEKMESSISSSSE [synthetic peptide V77-E92 of αS1-casein]
[5]
  IL-8 secretion of TLR4+ cells after 24 h with 1.5 µM peptide (sandwich ELISA): 0.95 ng/mL
